Measurements taken from patent publication US20250282866A1 (VIGIL NEUROSCIENCE, published 2025).

T1: human TREM2 (human, UniProt Q9NZC2 19-174, limits assumed)
T1 construct: also called triggering receptor expressed on myeloid cells 2
T1 sequence: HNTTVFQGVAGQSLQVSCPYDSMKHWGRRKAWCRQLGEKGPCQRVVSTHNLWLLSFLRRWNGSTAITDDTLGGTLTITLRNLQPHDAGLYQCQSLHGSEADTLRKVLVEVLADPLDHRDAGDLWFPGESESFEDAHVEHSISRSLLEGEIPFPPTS


Assays:
human TREM2 [1] = molecular target: T1, human TREM2; test: 1st screen (110 nM or 10 nM)
human TREM2 [2] = molecular target: T1, human TREM2; test: 2nd screen 100 nM

Row | Binder | Binding Signal (fold over 6E7 Parental antibody) (human TREM2 [1]) [fold] | Binding Signal (fold over 6E7 Parental antibody) (human TREM2 [2]) [fold]
1 | V43 (antibody, V domains shown) VH: EVQLVQSGAEVKKPGESLKISCKGSGYSFTSYWIAWVRQMPGKGLEWMGIIYPGDSGTRYSPSFQGQVTISADKSISTAYLQWSSLKASDTAMYFCARQRTFYYDSSDYFDYWGQGTLVTVSS VL: DIQMTQSPSSVSASVGDRVTITCRASQGISSWLAWYQQKPGKAPKLLIYAASSLQNGVPSRFSGSGSGTDFTLTISSLQPEDFATYFCQQADSFPRTFGQGTKLEIK | 0.2 | 0.33
2 | V54 (antibody, V domains shown) VH: EVQLVQSGAEVKKPGESLKISCKGSGYSFTSQWIAWVRQMPGKGLEWMGIIYPGDSDTRYSPSFQGQVTISADKSISTAYLQWSSLKASDTAMYFCARQRTFYYDSSDYFDYWGQGTLVTVSS VL: DIQMTQSPSSVSASVGDRVTITCRASQGISSWLAWYQQKPGKAPKLLIYAASSLQNGVPSRFSGSGSGTDFTLTISSLQPEDFATYFCQQADSFPRTFGQGTKLEIK | 0.55 | 0.54
3 | V68 (antibody, V domains shown) VH: EVQLVQSGAEVKKPGESLKISCKGSGYSFTSYWIAWVRQMPGKGLEWMGIIYPGDSDTRYSPSFQGQVTISADKSISTAYLQWSSLKASDTAMYFCARQRTFRYDSSDYFDYWGQGTLVTVSS VL: DIQMTQSPSSVSASVGDRVTITCRASQGISSWLAWYQQKPGKAPKLLIYAASSLQNGVPSRFSGSGSGTDFTLTISSLQPEDFATYFCQQADSFPRTFGQGTKLEIK | 0.44 | 0.43
4 | V55 (antibody, V domains shown) VH: EVQLVQSGAEVKKPGESLKISCKGSGYSFTSYWIAWVRQMPGKGLEWMGIIYPGDSDTIYSPSHQGQVTISADKSISTAYLQWSSLKASDTAMYFCARQRTFYYDSSDYFDYWGQGTLVTVSS VL: DIQMTQSPSSVSASVGDRVTITCRASQGISSWLAWYQQKPGKAPKLLIYAASSLQNGVPSRFSGSGSGTDFTLTISSLQPEDFATYFCQQADSFPRTFGQGTKLEIK | 0.24 | 0.66
5 | V66 (antibody, V domains shown) VH: EVQLVQSGAEVKKPGESLKISCKGSGTSFTSYWIAWVRQMPGKGLEWMGIIYPGDSDTRYSPSFQGQVTISADKSISTAYLQWSSLKASDTAMYFCARQRTFYYDSSDYFDYWGQGTLVTVSS VL: DIQMTQSPSSVSASVGDRVTITCRASQGISSWLAWYQQKPGKAPKLLIYAASSLQNGVPSRFSGSGSGTDFTLTISSLQPEDFATYFCQQADSFPRTFGQGTKLEIK | 0.25 | 0.74
6 | V46 (antibody, V domains shown) VH: EVQLVQSGAEVKKPGESLKISCKGSGYSFTSYWIAWVRQMPGKGLEWMGIIYPGDSDTRYSPSFQGQVTISADKSISTAYLQWSSLKASDTAMYFCARQRTFYYDSSDYFDYWGQGTLVTVSS VL: DIQMTQSPSSVSASVGDRVTITCRASQGISSWLAWYQQKPGKAPKLLIYAASTLQNGVPSRFSGSGSGTDFTLTISSLQPEDFATYFCQQADSFPRTFGQGTKLEIK | 0.83 | 0.96
7 | V69 (antibody, V domains shown) VH: EVQLVQSGAEVKKPGESLKISCKGSGYSFTSYWIAWVRQMPGKGLEWMGIIYPGDSDTRYSPSFQGQVTISADKSISTAYLQWSSLKASDTAMYFCARQRTFYYDSSDYFDYWGQGTLVTVSS VL: DIQMTQSPSSVSASVGDRVTITCRASQGISSYLAWYQQKPGKAPKLLIYAASSLQNGVPSRFSGSGSGTDFTLTISSLQPEDFATYFCQQADSFPRTFGQGTKLEIK | 0.41 | 0.4
8 | V58 (antibody, V domains shown) VH: EVQLVQSGAEVKKPGESLKISCKGSGYSFTSYWIAWVRQMPGKGLEWMGIIYPGDSDTRYSPSFQGQVTISADKSISTAYLQWSSLKASDTAMYFCARQRTFYYDSSDYFDYWGQGTLVTVSS VL: DIQMTQSPSSVSASVGDRVTITCRASQGISSWLAWYQQKPGKAPKLLIYKASSLQNGVPSRFSGSGSGTDFTLTISSLQPEDFATYFCQQADSFPRTFGQGTKLEIK | 0.28 | 0.68
9 | V70 (antibody, V domains shown) VH: EVQLVQSGAEVKKPGESLKISCKGSGYSFTSYWIAWVRQMPGKGLEWMGIIYPGDSDTRYSPSFQGQVTISADKSISTAYLQWSSLKASDTAMYFCARQRTFYYDSSDYFDYWGQGTLVTVSS VL: DIQMTQSPSSVSASVGDRVTITCRASQGISSWLAWYQQKPGKAPKLLIYAAGSLQNGVPSRFSGSGSGTDFTLTISSLQPEDFATYFCQQADSFPRTFGQGTKLEIK | 0.79 | 0.84
10 | V59 (antibody, V domains shown) VH: EVQLVQSGAEVKKPGESLKISCKGSGYSFTSYWIAWVRQMPGKGLEWMGIIYPGDSDTRYSPSFQGQVTISADKSISTAYLQWSSLKASDTAMYFCARQRTFYYDSSDYFDYWGQGTLVTVSS VL: DIQMTQSPSSVSASVGDRVTITCRASQGISSWLAWYQQKPGKAPKLLIYAASSLQNGVPSRFSGSGSGTDFTLTISSLQPEDFATYFCMQADSFPRTFGQGTKLEIK | 0.19 | 0.6
11 | V44 (antibody, V domains shown) VH: EVQLVQSGAEVKKPGESLKISCKGSGYSFTSYWIAWVRQMPGKGLEWMGIIYPSDSDTRYSPSFQGQVTISADKSISTAYLQWSSLKASDTAMYFCARQRTFYYDSSDYFDYWGQGTLVTVSS VL: DIQMTQSPSSVSASVGDRVTITCRASQGISSWLAWYQQKPGKAPKLLIYAASSLQNGVPSRFSGSGSGTDFTLTISSLQPEDFATYFCQQADSFPRTFGQGTKLEIK | 0.65 | 0.52
12 | V57 (antibody, V domains shown) VH: EVQLVQSGAEVKKPGESLKISCKGSGYSFTSYWIAWVRQMPGKGLEWMGIIYPGDSDTRYSPSFQGQVTISADKSISTAYLQWSSLKASDTAMYFCARQRTFYYDSSDYFDYWGQGTLVTVSS VL: DIQMTQSPSSVSASVGDRVTITCAASQGISSWLAWYQQKPGKAPKLLIYAASSLQNGVPSRFSGSGSGTDFTLTISSLQPEDFATYFCQQADSFPRTFGQGTKLEIK | 0.84 | 0.85
13 | V45 (antibody, V domains shown) VH: EVQLVQSGAEVKKPGESLKISCKGSGYSFTSYWIAWVRQMPGKGLEWMGIIYPGDSDTRYSPSFQGQVTISADKSISTAYLQWSSLKASDTAMYFCARQRTFYYDSSDYFDYWGQGTLVTVSS VL: DIQMTQSPSSVSASVGDRVTITCRASQGISSFLAWYQQKPGKAPKLLIYAASSLQNGVPSRFSGSGSGTDFTLTISSLQPEDFATYFCQQADSFPRTFGQGTKLEIK | 0.43 | 0.53
14 | V47 (antibody, V domains shown) VH: EVQLVQSGAEVKKPGESLKISCKGSGYSFTSYWIAWVRQMPGKGLEWMGIIYPGDSDTRYSPSFQGQVTISADKSISTAYLQWSSLKASDTAMYFCARQRTFYYDSSDYFDYWGQGTLVTVSS VL: DIQMTQSPSSVSASVGDRVTITCRASQGISSWLAWYQQKPGKAPKLLIYAASSLQNGVPSRFSGSGSGTDFTLTISSLQPEDFATYFCQQADSFPMTFGQGTKLEIK | 0.42 | 0.47
15 | V78 (antibody, V domains shown) VH: EVQLVQSGAEVKKPGESLKISCKGSGYRFTSYWIAWVRQMPGKGLEWMGIIYPGDSDTRYSPSFQGQVTISADKSISTAYLQWSSLKASDTAMYFCARQRTFYYDSSDYFDYWGQGTLVTVSS VL: DIQMTQSPSSVSASVGDRVTITCRASQGISSWLAWYQQKPGKAPKLLIYAASSLQNGVPSRFSGSGSGTDFTLTISSLQPEDFATYFCQQADSFPRTFGQGTKLEIK | 0.86 | 1.11
16 | V67 (antibody, V domains shown) VH: EVQLVQSGAEVKKPGESLKISCKGSGYSFTSYWIAWVRQMPGKGLEWMGMIYPGDSDTRYSPSFQGQVTISADKSISTAYLQWSSLKASDTAMYFCARQRTFYYDSSDYFDYWGQGTLVTVSS VL: DIQMTQSPSSVSASVGDRVTITCRASQGISSWLAWYQQKPGKAPKLLIYAASSLQNGVPSRFSGSGSGTDFTLTISSLQPEDFATYFCQQADSFPRTFGQGTKLEIK | 0.8 | 0.84
17 | V71 (antibody, V domains shown) VH: EVQLVQSGAEVKKPGESLKISCKGSGYSFTSYWIAWVRQMPGKGLEWMGIIYPGDSDTRYSPSFQGQVTISADKSISTAYLQWSSLKASDTAMYFCARQRTFYYDSSDYFDYWGQGTLVTVSS VL: DIQMTQSPSSVSASVGDRVTITCRASQGISSWLAWYQQKPGKAPKLLIYAASSLQNGVPSRFSGSGSGTDFTLTISSLQPEDFATYFCQQADSEPRTFGQGTKLEIK | 0.37 | 0.48
18 | V56 (antibody, V domains shown) VH: EVQLVQSGAEVKKPGESLKISCKGSGYSFTSYWIAWVRQMPGKGLEWMGIIYPGDSDTRYQPSFQGQVTISADKSISTAYLQWSSLKASDTAMYFCARQRTFYYDSSDYFDYWGQGTLVTVSS VL: DIQMTQSPSSVSASVGDRVTITCRASQGISSWLAWYQQKPGKAPKLLIYAASSLQNGVPSRFSGSGSGTDFTLTISSLQPEDFATYFCQQADSFPRTFGQGTKLEIK | 0.23 | 0.59
